# PMC3433420
# Several values for one entry are separate records, joined by “and”; a condition that tells them apart may be missing. Equal values may be shown once. Read-outs that look alike come from different tables or passages of the source.
# What was measured:
# PLCG1-NC (Homo sapiens) [1] = biological target: PLCG1-NC (Homo sapiens) (UniProt P19174); conditions: cited from earlier work
# TNS4 (Homo sapiens) = TNS4 (Homo sapiens) (UniProt Q8IZW8); conditions: cited from earlier work
# VAV2 (Homo sapiens) = VAV2 (Homo sapiens) (UniProt P52735); conditions: cited from earlier work
# ABL2 SH2 domain (human) = ABL2 SH2 domain (human) (UniProt P42684); assay: peptide or protein array; SH2/PTB proteins spotted on aldehyde slides, rhodamine peptide titrated in buffer B (20 mM HEPES, 100 mM KCl, 0.1% Tween-20, 5 mM DTT, pH 7.8), 1 h at room temperature; replicate assays
# BLNK SH2 domain (human) = BLNK SH2 domain (human) (UniProt Q8WV28); assay: as above
# FGR SH2 domain (human) = FGR SH2 domain (human) (UniProt P09769); assay: as above
# GRAP2 SH2 domain (human) = GRAP2 SH2 domain (human) (UniProt O75791); assay: as above
# ITK SH2 domain (human) = ITK SH2 domain (human) (UniProt Q08881); assay: as above
# LCK SH2 domain (human) = LCK SH2 domain (human) (UniProt P06239); assay: as above
# NCK1 SH2 domain (human) = NCK1 SH2 domain (human) (UniProt P16333); assay: as above
# [2] = biological target: RASA1 tandem SH2 domains (human); assay: as above
# [3] = biological target: SH2D1B SH2 domain (human) (UniProt O14796); assay: as above
# [4] = biological target: SH2D3C SH2 domain (human) (UniProt Q8N5H7); assay: as above
# [5] = biological target: SYK tandem SH2 domains (human); assay: as above
# YES1 SH2 domain (human) = YES1 SH2 domain (human) (UniProt P07947); assay: as above
# [6] = biological target: ZAP70 C-terminal SH2 domain (human) (UniProt P43403); assay: as above
# PIK3R1-N (Homo sapiens) = PIK3R1-N (Homo sapiens) (UniProt P27986); conditions: cited from earlier work
# PLCG1-NC (Homo sapiens) [7] = biological target: PLCG1-NC (Homo sapiens) (UniProt P19174); conditions: cited from earlier work; remark: listed apart in the source
# PIK3R3-NC (Homo sapiens) = PIK3R3-NC (Homo sapiens) (UniProt Q92569); conditions: cited from earlier work
# VAV3 (Homo sapiens) = VAV3 (Homo sapiens) (UniProt Q9UKW4); conditions: cited from earlier work
# TENC1 (Homo sapiens) = TENC1 (Homo sapiens) (UniProt Q63HR2); conditions: cited from earlier work
# SHC3 (Homo sapiens) = SHC3 (Homo sapiens) (UniProt Q92529); conditions: cited from earlier work
# SHC1 (Homo sapiens) = SHC1 (Homo sapiens) (UniProt P29353); conditions: cited from earlier work
# Chain of SHC1 (Homo sapiens) (P29353 483-583): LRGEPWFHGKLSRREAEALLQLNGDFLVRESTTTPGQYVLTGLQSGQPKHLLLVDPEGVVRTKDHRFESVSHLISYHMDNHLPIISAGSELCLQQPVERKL
# Chain of LCK SH2 domain (human) (P06239 127-224): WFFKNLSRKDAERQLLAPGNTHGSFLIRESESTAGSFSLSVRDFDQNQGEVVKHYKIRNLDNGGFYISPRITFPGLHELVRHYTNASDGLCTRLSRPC
# Chain of GRAP2 SH2 domain (human) (O75791 58-149): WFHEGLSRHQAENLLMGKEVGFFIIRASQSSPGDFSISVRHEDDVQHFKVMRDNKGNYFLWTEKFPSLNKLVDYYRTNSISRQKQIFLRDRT
# Chain of SH2D3C SH2 domain (human) (Q8N5H7 220-319): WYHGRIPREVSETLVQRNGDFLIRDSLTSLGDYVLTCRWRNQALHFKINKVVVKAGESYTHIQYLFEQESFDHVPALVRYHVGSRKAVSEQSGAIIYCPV
# Chain of ITK SH2 domain (human) (Q08881 239-338): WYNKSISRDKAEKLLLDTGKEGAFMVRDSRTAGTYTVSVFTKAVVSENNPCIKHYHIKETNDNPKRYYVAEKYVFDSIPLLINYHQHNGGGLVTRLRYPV
# Chain of PLCG1-NC (Homo sapiens) (P19174 545-761): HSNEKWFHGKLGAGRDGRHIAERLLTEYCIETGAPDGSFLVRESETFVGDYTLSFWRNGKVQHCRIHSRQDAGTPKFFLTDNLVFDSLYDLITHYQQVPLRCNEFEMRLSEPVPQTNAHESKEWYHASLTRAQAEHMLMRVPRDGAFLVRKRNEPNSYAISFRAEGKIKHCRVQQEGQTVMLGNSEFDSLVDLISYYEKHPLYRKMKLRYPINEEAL
# Chain of YES1 SH2 domain (human) (P07947 158-255): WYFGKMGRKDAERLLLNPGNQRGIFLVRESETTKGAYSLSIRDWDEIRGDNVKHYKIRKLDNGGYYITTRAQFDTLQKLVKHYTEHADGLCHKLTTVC
# Chain of ABL2 SH2 domain (human) (P42684 173-263): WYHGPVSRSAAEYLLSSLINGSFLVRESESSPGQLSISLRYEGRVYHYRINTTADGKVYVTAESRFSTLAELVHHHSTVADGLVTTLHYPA
# Chain of VAV3 (Homo sapiens) (Q9UKW4 667-771): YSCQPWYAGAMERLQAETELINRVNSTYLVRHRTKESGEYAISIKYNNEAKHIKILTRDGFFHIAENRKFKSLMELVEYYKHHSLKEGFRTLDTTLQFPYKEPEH
# Chain of ZAP70 C-terminal SH2 domain (human) (P43403 whole entry, the tested form may be a part): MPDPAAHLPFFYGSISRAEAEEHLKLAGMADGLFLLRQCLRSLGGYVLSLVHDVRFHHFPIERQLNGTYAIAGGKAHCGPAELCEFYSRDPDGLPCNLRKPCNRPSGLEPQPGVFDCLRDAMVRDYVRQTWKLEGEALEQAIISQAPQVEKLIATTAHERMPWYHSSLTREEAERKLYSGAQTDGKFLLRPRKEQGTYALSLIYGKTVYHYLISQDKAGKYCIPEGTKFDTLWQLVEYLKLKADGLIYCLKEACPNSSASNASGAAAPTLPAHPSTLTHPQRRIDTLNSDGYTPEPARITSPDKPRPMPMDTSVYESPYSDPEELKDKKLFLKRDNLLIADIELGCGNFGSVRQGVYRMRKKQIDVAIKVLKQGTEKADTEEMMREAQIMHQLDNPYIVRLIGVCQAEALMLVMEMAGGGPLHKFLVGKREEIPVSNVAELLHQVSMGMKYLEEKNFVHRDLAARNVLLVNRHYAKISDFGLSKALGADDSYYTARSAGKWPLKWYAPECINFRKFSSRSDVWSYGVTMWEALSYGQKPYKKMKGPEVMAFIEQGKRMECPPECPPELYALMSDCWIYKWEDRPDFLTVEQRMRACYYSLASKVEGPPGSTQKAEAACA
# Chain of PIK3R1-N (Homo sapiens) (P27986 328-723): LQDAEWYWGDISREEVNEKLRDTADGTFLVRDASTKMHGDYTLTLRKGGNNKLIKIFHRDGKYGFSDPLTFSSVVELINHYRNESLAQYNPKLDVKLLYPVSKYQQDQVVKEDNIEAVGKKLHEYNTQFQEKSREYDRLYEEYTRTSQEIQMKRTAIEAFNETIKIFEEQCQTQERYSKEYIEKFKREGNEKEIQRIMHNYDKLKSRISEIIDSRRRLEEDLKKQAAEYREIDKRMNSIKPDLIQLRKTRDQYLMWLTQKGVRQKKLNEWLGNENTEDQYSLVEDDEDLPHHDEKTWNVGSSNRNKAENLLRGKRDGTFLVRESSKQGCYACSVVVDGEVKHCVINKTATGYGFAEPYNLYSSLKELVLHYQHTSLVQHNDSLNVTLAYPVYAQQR
# Chain of SHC3 (Homo sapiens) (Q92529 494-594): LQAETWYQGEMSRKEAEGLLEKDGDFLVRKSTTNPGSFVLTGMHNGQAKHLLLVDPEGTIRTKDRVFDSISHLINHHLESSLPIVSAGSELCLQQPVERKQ
# Chain of VAV2 (Homo sapiens) (P52735 668-772): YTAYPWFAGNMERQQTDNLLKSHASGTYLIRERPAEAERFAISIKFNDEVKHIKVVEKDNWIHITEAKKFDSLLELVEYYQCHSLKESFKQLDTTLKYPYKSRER
# Chain of TENC1 (Homo sapiens) (Q63HR2 1135-1252): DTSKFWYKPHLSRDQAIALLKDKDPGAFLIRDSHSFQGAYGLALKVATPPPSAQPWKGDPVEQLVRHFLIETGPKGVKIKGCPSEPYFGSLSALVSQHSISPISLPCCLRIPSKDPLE
# Chain of TNS4 (Homo sapiens) (Q8IZW8 444-561): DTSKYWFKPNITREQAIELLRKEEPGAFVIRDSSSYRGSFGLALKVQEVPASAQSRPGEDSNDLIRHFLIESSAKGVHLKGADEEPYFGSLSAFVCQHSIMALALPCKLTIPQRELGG
# Chain of SH2D1B SH2 domain (human) (O14796 5-101): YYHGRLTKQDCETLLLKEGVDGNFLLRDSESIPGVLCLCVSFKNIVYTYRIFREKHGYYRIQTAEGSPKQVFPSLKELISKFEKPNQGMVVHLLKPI
# Chain of BLNK SH2 domain (human) (Q8WV28 346-453): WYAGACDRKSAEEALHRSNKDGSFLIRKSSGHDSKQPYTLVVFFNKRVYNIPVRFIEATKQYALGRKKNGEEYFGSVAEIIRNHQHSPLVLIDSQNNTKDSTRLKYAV
substance,measurement,setting,value
…pYLVPQQGF,apparent Kd (screen),PLCG1-NC (Homo sapiens) [1],2000 nM
…pYLIPQQGFd,apparent Kd (screen),TNS4 (Homo sapiens),922 nM
same,apparent Kd (screen),VAV2 (Homo sapiens),85 nM
"ErbB4 pY1262 phosphopeptide, rhodamine-labelled, for protein microarrays",Kd,ABL2 SH2 domain (human),60.6 nM and 306 nM
same,Kd,BLNK SH2 domain (human),1640 nM
same,Kd,FGR SH2 domain (human),201 nM and 401 nM
same,Kd,GRAP2 SH2 domain (human),808 nM and 1360 nM
same,Kd,ITK SH2 domain (human),401 nM and 802 nM
same,Kd,LCK SH2 domain (human),214 nM and 375 nM
same,Kd,NCK1 SH2 domain (human),574 nM and 643 nM
same,Kd,[2],318 nM
same,Kd,[3],612 nM
same,Kd,[4],1440 nM and 1160 nM
same,Kd,[5],164 nM and 649 nM
same,Kd,YES1 SH2 domain (human),111 nM and 329 nM
same,Kd,[6],588 nM
…pYEEMRAFQ,apparent Kd (screen),PIK3R1-N (Homo sapiens),210 nM
same,apparent Kd (screen),PLCG1-NC (Homo sapiens) [7],499 nM
same,apparent Kd (screen),PIK3R3-NC (Homo sapiens),10 nM
same,apparent Kd (screen),VAV3 (Homo sapiens),2000 nM
same,apparent Kd (screen),TENC1 (Homo sapiens),2000 nM
…pYWDQDPPE,apparent Kd (screen),SHC3 (Homo sapiens),1710 nM
same,apparent Kd (screen),SHC1 (Homo sapiens),2000 nM
